Test results published in the supplement of paper PMC9170038.

System: K4 kissing-loop RNA reporter
Test: apparent KD of K4 kissing-loop reporter; higher = weaker reporter binding
Conditions: Eterna round: R107
Experimental: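 RNA-MaP round R107: designed RNA switches with theophylline, tryptophan, arginine or FMN aptamers are transcribed on-chip within common flanks. They are titrated with a labelled K4 kissing-loop RNA reporter in RNA-MaP buffer (100 mM Tris pH 7.5, 80 mM KCl, 4 mM MgCl2), without ligand or with the indicated ligand. Median apparent KD per design.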

[1] = input ligand: theophylline 20 uM
[2] = input ligand: tryptophan 2.4 mM
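Note: bound reporter read as fluorescence of individual clusters on recovered sequencing chips by microscopy, with normalized cluster intensities fitted with a binding model.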

Sequence	apparent KD of K4 kissing-loop reporter (input ligand: FMN 200 uM) [µM]	apparent KD of K4 kissing-loop reporter (input ligand: arginine 13.2 mM) [µM]	apparent KD of K4 kissing-loop reporter (input ligand: none) [µM]	apparent KD of K4 kissing-loop reporter [1] [µM]	apparent KD of K4 kissing-loop reporter [2] [µM]
UUAAUAAUUCAAGGAUAUGUUUUCUAUUUCGAGUGAUGUUCGGAAUUAAUAAAUUUAAAAGAUUAUACAGAAGGUGAUAAAUAGU [Cynwulf-mod#2]	0.0871	0.0929	0.0859	0.115	0.0811
GGUCGAGUGAUGUUCGAUGUAGUGCAUUCAGAGGAUAUAGGAUUGGCUAGAAGGCUGAAACCUUCUUCGAGUGAUGUUCGAGGAU [Same State FMN A GF5]	0.13	0.0838	0.112	0.0901	0.0778
UGGGAUGUUAAAGGAUAUAGAAAGUGAUAUUAGAAAGUGAGUGAUGUUGAUGUAAGUGAUGAUAUGUUAGAAGGUUAACAAAACG [abcd]	0.431	0.363	0.499	0.472	0.379
GCCGUAGAUUGAAGGAGCGUUCUUACUGAUUACGGCAGCCGGAAGUGAUGUUUCCAGGUGGAACAGGUAGGUCGCAAUCUACGGC	0.104	0.0872	0.096	0.0998	0.092
GUUCGAUUCUGAGUGAUGUUGAGAAUUGAGAAGGAUAUCCAGAAAAGGAGAAGGUCUACGUCAUGCGCCUCGAUUUGCUAGCUGC [theeternabot_exclusion_KL_FMN_A_50]	0.835	0.567	0.63	0.515	0.609
AGGUGAGACUGAAGGAGCGAUCGCGCUAGUGAUGUUGGCGAGCAUGACAAAGUCAUGCACGAUCAGGUAGGUCGCAGUCUUACUC [Omei KL Arginine B SS B v1]	0.128	0.103	0.137	0.123	0.141
GGUGACGACCAGAGGUGAUGUAUAGUAUCGCGAGGACCGGUACGGCCGCCACUCGUGAAGAGAAAGGAGUGAUGUUCCGUAAUGG [Kazoo C9]	0.241	0.217	0.289	0.289	0.108
GAGCGGUAGAGGCUACCGCUAUUCUGAGAAGGAGCGCAGAUGACUGCAGGUAGGUCGCUUAGAGCUUGCAGUGAUGUUGCAAGUU [Inzarier]	0.178	0.176	0.191	0.181	0.181
ACUAUGGAGUGAUGUUCCCGCGUCAUUGAUACCAGAAUGUAUACCUUCCCUUGGCAGCAAUUCAUCGCACGUAUACUUAUACAAG [theeternabot_sameState_KL_Theo_A_31]	0.585	0.541	0.665	0.841	0.541
AGUGAUGUGGGAAGGAGCGGUAUAUGAGUUCAGUGAUGUUGAAGUGAUGAUAUAGUGAUGUGCCAGGUAGGUCGCCUAGAUGUUA [KL-XARG-B5]	0.281	0.144	0.21	0.146	0.202
UAAUAUCAACUUGUAGGAGUGAUGUUCCGCCGAGGACCGGUACGGCCGCCACUCGACAAAAUCUCAGUGUGGUACCUAGGAAUUU [theeternabot_exclusion_KL_Trp_A_24]	0.406	0.313	0.374	0.352	0.431
GCCCGGUGAAUCCGCCAAGAUAGACACCGUCGAGGACCGGUACGGCCGCCACUCGAGUACGAGUGAUGUUCGUACGCGGUGUCGA [Onedzate]	0.606	0.728	0.657	0.431	0.189
AGGAUGUAGUGAUGUUAUAUAAGAAGUAAACGAGGACCGGUACGGCCGCCACUCGAAGCGGCUACUAGCGCGUUGCGAGGUGUGC [ExTryptoA.Ce]	0.492	0.384	0.581	0.656	0.378
AGUAUAGAGUCGGCCGCCACUGGUUUUAUGUGUGUCAAAUCUGGAUCAAAGUGAUGUUUUGAGACUAGGACCGGGACCAUUGUUA [#06 K4 Tryptophan B Exclusion]	0.16	0.139	0.145	0.131	0.206
AGCUAUUAGACGGCCGCCACUUGCUCUGAGACCUGACAUGGAACCAGUGAUGUUGGUUUGCGUGUAAGGACCGGGUUUGGUGGCG [Tiesbi]	0.107	0.0922	0.0991	0.0887	0.104
CGCAGUGAUGUUGCGAGUAGCUACAGGGAAGGAGCGCUUUAGUAAGCAGGUAGGUCGCCCACGCAGUGAUGUUGCGUCAUAGGGU [Exclusion Arginine A GF 19]	0.118	0.106	0.108	0.109	0.0884
UCUGUUUCGAUGGAUACCAGUCGGCGAAUCACAGCUAUUAGCCUAGUGAUGUUAGGAUCGGACCCUUGGCAGCCAAUGGAUGCGG [theeternabot_sameState_KL_Theo_B_14]	0.921	0.75	1.24	1.27	0.732
UAGUCCGAGUGAUGGUCAUCACGUGGCGGGCGAGGACCGGUACGGCCGCCACUCGACUUUGCAGUGAUGUUGCAAACCGGACAAU [Exclusion - Tryptophan A (Freestyle 21)]	0.229	0.185	0.249	0.224	0.193
CGGUACGUCGCAGGAUAUGGAUUCUGGAGUGAUGUUUCAGAGGCAUGCGGAAAACGCAUGCCGACUCCAGAAGGGCGACGUACCG	0.752	0.0858	0.276	0.024	0.376
AUUAAUUUCAGAGGAUAUCGUAAUUUUAUUUAAUUUAUUCAUUUAUGCAGUGAUGUUGCUAAUAUUCGAGAAGGCUGAUUUAUAA [JR_ExcFMNB_Sub007]	0.103	0.121	0.0558	0.115	0.0522
ACGCUAGCUACCGAAAGGUAGCUAGCGAGUGAGGAUAUGUGGAAACACAGAAGGCACAGCGCAGUGAUGUUGUGCGGCGGAAGCG [whbob_SS_FMNA__2th168]	0.604	0.221	0.631	0.664	0.473
AGGCACGAGCAAGGAUAUUGAGUAGAGUGAUGUUCUGCCUGGGUUGGCUCGGAAGAGCCUUCUCAGCGAGAAGGUGCUCGUGCCU [#2 Same State - FMN A Attempt #24 (HarryS)]	0.261	0.475	0.785	0.542	0.556

Sequence	apparent KD of K4 kissing-loop reporter (input ligand: FMN 200 uM) [µM]	apparent KD of K4 kissing-loop reporter (input ligand: arginine 13.2 mM) [µM]	apparent KD of K4 kissing-loop reporter (input ligand: none) [µM]	apparent KD of K4 kissing-loop reporter [1] [µM]	apparent KD of K4 kissing-loop reporter [2] [µM]
AGGAUCCGUCGACAAAAGUCGACAUAAUCCGAGGAUAUGACGAAAGUCAGAAGGUGGACAUAAGUCCAGUGAUGUUGGAGGAUCC [FmnA 17 #SwitchBubble #K4Late]	0.847	0.218	0.441	0.42	0.193
AGUGAACGAGCGGCCGCCACUAAAUGAGUGAUGUUCGUGAGUAGUGCUGUUCUCAUGAUUGUUUUUAGGACCGGGUUCGAUGUUG [edcclmullin]	0.937	0.739	0.762	0.576	0.662
GGAUAGGACAGAGGAUAUGGUAGCUAGGCAAGACAAAAGUCUUGUCUAGCAAUGAGGAGUGAUGUUCCAGAAGGCUGUCCUAUCG [FmnBX 4 - #SwitchBubble #StaticStem]	0.753	0.35	0.442	0.387	0.27
GGUGUUGUUUGUGCUGUUUUCCUCGUUCCUCGAGGACCGGUACGGCCGCCACUCGAGUGAUGUUUGGGUAGCGAUCCCUGUUAGU [Bdazzled - #8 Exc. Tryptophan A]	0.624	0.504	0.675	0.649	0.593
CCUGCCAGCACGGCCGCCACUUCUAUUGUAUCUAUUUUUGUAAUCCUUUAGGAGUGAUGUUUUUAAAGGACCGGGUGAUGGCUGA [theeternabot_exclusion_KL_Trp_B_14]	0.446	0.248	0.398	0.356	0.41
GCCUAGCAGGGAAGGAGCGCCAGGAGAAGAAAUGGAGAGAGUUGAGUGAUGUUCAAAUGGUGGCAGGUAGGUCGCCCUGCUAGGC [KL-SSArg B12]	0.388	0.298	0.583	0.761	0.274
CCAGAAUAAUGAAGAUGAUAAAUUACUGAAGGAGCGCAUAUAGUUGCAGGUAGGUCGCGGUGAAUAAGUAUAGUGAUGUUAUACC [SSArgA.Ad]	0.261	0.209	0.256	0.26	0.255
GCUAUGGUAGGAAGGAGCGCUUACUCGUUAAUAAGAGUGAUGUUCGAUAACGAGUAUUUAUAGCAGGUAGGUCGCCUACUAUAGC [Arginine B K4 4]	0.207	0.193	0.168	0.242	0.199
UAACUCUUGCAGUGAUGUUGCAAGUAAGCUCAGGAUAUCAGGAAACUGAGAAGGGAGCAUCCUGAGCUUCUGCAAGAGCUCAGAA [KL-SSFMN-A4]	0.254	0.152	0.184	0.217	0.189
AGACUACCUACACUGUCAAUAGACAGUGACUAGGAUAUGCUGAUAAGCAGAAGGAGUGAUGUUCCUAAUAAAAGGUGGUAGUCAU [FmnAX 19 #SwitchBubble #StaticStem #K4Early]	0.309	0.258	0.23	0.284	0.173
AUUAAUUUCAGAGGAUAUCGUAAUUUUAUUUUAUUUUUUCAUUUAUGCAGUGAUGUUGCAUUUAUUCGAGAAGGCUGAUUUAUAA [JR_SSFMNB_Sub021]	0.0657	0.0744	0.0408	0.0696	0.0507
CCGUGGAGUGAUGUUCCACGUAAUACGGAUACCAGCUUUGCCAAAGGCCCUUGGCAGCCGCACGUUGCAGUGAUGUUGUGGCGCG [Same State Theophylline A G8]	0.191	0.143	0.183	0.162	0.149
UUUAUAAAGUCGGCCGCCACUGGAUUUAUAUUUGUUUAAUCUGGAUCAAAGUGAUGUUUUGAGUCCAGGACCGGGACAUUUGUUA [JR_ExcTryptoB_Sub002]	0.125	0.123	0.124	0.135	0.232
AGCCAUCACACGGCCGCCACUGAGUAGUGAUGUUGCUUGUAAAUCAGUCACCGCAUUAAUGCCGACAGGACCGGGUGCAUCGAGG [theeternabot_exclusion_KL_Trp_B_17]	0.327	0.142	0.327	0.394	0.247
UGAUACCAGACGGCCGCCACUCCCGUAAGUCAAAGACUUACGAAGAGAGUCGUCCAGUGAUGUUGGAGGACCGGGUCUGGUAUCU [FiskerMod 12 - Jieux - Exclusion - Tryptophan B]	0.179	0.143	0.163	0.138	0.294
ACGUAGUUCUAGGAUACCAGCCAAGGUCGCCAGGACAAAAGUCCUGGCGCCAGUGAUGUUGGCCCUUGGCAGCCUAGAACUACGA [Omei KL Theo B Exc B v6]	0.195	0.176	0.176	0.174	0.203
UUUUUAAUCGCAGAUACCAGUCCAGAAUGAAUACUAUAGUGAUGUUAUAAUAAAGGGAAGGACCCUUGGCAGCUGUACUAUAUUU [AstrosSsTheB#6]	0.412	0.308	0.398	0.3	0.299
GUCUGCGUCUCGGCCGCCACUCACUAGUGAUGUUAGUAAGGAGCGACUAGAGAAGUCCAGUUGAUGAGGACCGGGAGACGCAAAA [Exclusion Tryptophan B GF4]	0.114	0.0843	0.0957	0.0858	0.169
UGUAAGCGCGUAGAUACCAGCAGACGAGUGAUGUUCGAGAGAUUAAGGAAAAGAAAGUAAUGCCCUUGGCAGCUAAUCAUAAGCG [whbob_Ex_Theo_B_sa94]	0.248	0.335	0.264	0.301	0.174
AAUAUAGUGAUGUUAUAUAAGAAGGAGUUACGAGGACCGGUACGGCCGCCACUCGAAACGAGUGAGGGCCCGGGAGAUUGGGCCC [SSTryptA.G]	0.339	0.275	0.32	0.436	0.262
GGAGGAGAAUAUGAUACCAGCAGAGAGAGAGAGGAAGUAUAGUGAUGUUAUAUGUGAGAAUGCCCUUGGCAGCAUAACAUGAAGG [whbob_SS_Theo_B_sa90]	0.288	0.193	0.211	0.454	0.159
